Results reported in article PMC7196836, “Molecular analysis of the ribosome recycling factor ABCE1 bound to the 30S post‐splitting complex” (The EMBO Journal, 2020).

Biological target: Thermococcus celer 30S small ribosomal subunit (T. celer (endogenous in T. celer cells)) (UniProt P29161)
Test: cryo-EM structure; post-splitting complex from 1 nmol T. celer 70S split by ABCE1^IIEA (8 uM), aPelota and aRF1 (5 uM each), 0.5 mM AMP-PNP, 50 mM HEPES-KOH pH 7.5, 30 mM KCl, 10 mM MgCl2, 2 mM DTT, 65 °C 15 min; cross-linked with 1% formaldehyde; 30S fractions of a 10-30% sucrose gradient

percent of 30S particles associated with ABCE1 (3D classification): 97%
Substance: ABCE1^IIEA (E238A/E485A), hydrolysis-deficient ABCE1 from Saccharolobus solfataricus (from UniProt Q980K5 1-594) (enzyme)
